Assays:
NADPH oxidase = test: p47phox foci (active NADPH oxidase) in bone marrow-derived macrophages, confocal microscopy; type: cell-based, mouse; details: WT BMMs; 1,000 units/ml 24 h pretreatment, then 5 mM ATP 1 h
GTP-Rac1 = GTP-Rac1 level in bone marrow-derived macrophages (western blot); type: cell-based, mouse; details: WT BMMs; 1,000 units/ml 24 h pretreatment, then 5 mM ATP 5, 10 or 15 min
Procedure: Bone marrow-derived macrophages obtained from wild-type mice were pretreated with 1,000 units/ml rIFNα or IFNβ for 24 hours before treatment with 5 mM ATP for 5, 10, or 15 minutes. Cells were then lysed, and total GTP-Rac1 was compared to GTP-Rac1 by western blot first using an antibody specific for GTP-Rac1, followed by membrane stripping and probing with an antibody recognizing total Rac1. GTP-Rac1 signal densitometry for each sample was normalized to total Rac1 using NIH Image/Image J software.

gp91^phox = test: gp91phox mRNA in bone marrow-derived macrophages (qRT-PCR); type: cell-based, mouse; details: WT BMMs; 1,000 units/ml, 24 h
Procedure: Nlrp3, Asc, Casp1 and Txnip mRNA expression were evaluated by qRT-PCR. Bone marrow-derived macrophages from wild-type and Ifnar1^−/− mice were incubated with or without 100 ng/ml Ultrapure LPS for 3 hours, and the mRNA expression for each gene was measured by RT-PCR using standard techniques, showing no significant differences between the samples. Similarly, cell surface expression of ATP receptor P2X7R and CD39 (nucleoside triphosphate diphosphohydrolase 1), an ectonucleotidase that hydrolyzes extracellular ATP, on wild-type and Ifnar1^−/− macrophages were determined to be equivalent by flow cytometry using standard techniques. […] Wild-type bone marrow-derived macrophages were incubated with or without 1,000 units/ml rIFNβ for 24 hours before determining levels of gp91^phox mRNA in the total RNA by qRT-PCR using standard techniques. […] DQ ovalbumin staining locates lysosomes. The proportion of cells with DQ ovalbumin leakage to cytoplasm due to ruptured lysosomes was evaluated by incubating wild-type and Ifnar1^−/− macrophages with DQ ovalbumin (10 μg/ml) alone or a combination of DQ ovalbumin (10 μg/ml) and Alum (250 μg/ml) for 1 hour. Wild-type cells were also measured with and without exposure to rIFNα.

mitochondrial ROS = test: ATP-induced mitochondrial ROS generation in macrophages (MITOSOX Red, flow cytometry); type: cell-based; details: 1,000 units/ml added 24 hr prior to 5 mM ATP for 30 min
Procedure: This example assessed whether ROS generated by the mitochondria may play a role in NLRP3 inflammasome activation. We tested whether IFNβ suppresses ROS generated by mitochondria with MITOSOX™ Red (Invitrogen™). A time course of ATP-induced mitochondrial ROS generation in macrophages was generated using macrophages incubated with 5 mM ATP for the time indicated in FIG. 12A. Macrophages were incubated with 5 mM ATP for indicated time at 37° C. in complete RPMI medium. ROS activity increase was calculated as mean fluorescence intensity value increase (percent) of MITOSOX™ RED staining by flow cytometry. An increase of mean fluorescent intensity (MFI) of the MITOSOX™ staining is shown in FIG. 12(A, B) as the reference point of MFI at time=0 (i.e., no ATP treatment). The ROS activity increase was calculated as mean fluorescence intensity value increase (percent) of MITOSOX™ Red staining by flow cytometry (FIG. 12A).
Suppression of mitochondrial ROS generation by type-1 IFNs was examined. Cells were incubated with 5 mM ATP for 30 min rIFNα or rIFNβ (1,000 units/mL) was added 24 hr prior to the ATP treatment. […]

B1: rIFNβ: recombinant mouse IFN-β (protein, UniProt P01575 22-182, looked up)
Interferon beta: INYKQLQLQERTNIRKCQELLEQLNGKINLTYRADFKIPMEMTEKMQKSYTAFAIQEMLQNVFLVFRNNFSSTGWNETIVVRLLDELHQQTVFLKTVLEEKQEERLTWEMSSTALHLKSYYWRVQRYLKLMKYNSYAWMVVRAEIFRNFLIIRRLTRNFQN
B1 was tested, and the “formation of p47phox foci” value (NADPH oxidase) was “inhibited the formation of p47^phox foci”, the “cellular levels of GTP-Rac1 (Rac1 activation)” value (GTP-Rac1) was “inhibit activation of GTP Rac1” and the “gp91phox mRNA expression” value (gp91^phox) was “did not affect gp91^phox mRNA expression”. The “mitochondrial ROS generation” value (mitochondrial ROS) was “suppressed”.

From patent US20120177632A1, “METHODS OF OPTIMIZING DISEASE TREATMENT” (priority 2011, published 2012)
